Source: US20250066503A1, “CELL INJURY INDUCING THERAPEUTIC DRUG FOR USE IN CANCER THERAPY” (CHUGAI SEIYAKU KABUSHIKI KAISHA, priority 2016, published 2025)
Positions count from the first letter of the chain named. Values belong to the binder of their own block, whether it stands above or below them.

Molecular target: T1, soluble human CD3 epsilon chain (human, UniProt P07766 23-126)
T1 construct: also called CD3ε
Assay: SPR

T1 sequence (P07766 23-126 limits assumed): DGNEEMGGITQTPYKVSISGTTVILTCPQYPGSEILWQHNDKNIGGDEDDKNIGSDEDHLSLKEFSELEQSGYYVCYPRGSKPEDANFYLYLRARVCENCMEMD

Kd: 109 nM
B1: TR01H082-E22Hh/none-Hi-Kn010G3/TR01L017-k0 (antibody, V domains shown)
VH: QVQLVESGGGLVQPGRSLRLSCAASGFTFSNAWMHWVRQAPGKGLEWVAQIKDKSQNYATYYAESVKGRFTISRDDSKNSLYLQMNSLKTEDTAVYYCRYVHYAAGYGVDAWGQGTTVTVSS
VL: DIVMTQSPLSLPVTPGEPASISCRSSQSPVHSNRNTYIQWYLQKPGQSPQLLIYKVSNRFSGVPDRFSGSGSGTDFTLKISRVEAEDVGVYYCYQGTQVPYTFGQGTKLEIK
notes: one-arm

Kd: 2.45 nM
B2: TR01H083-E22Hh/none-Hi-Kn010G3/L0262-k0 (antibody, V domains shown)
VH: B1 VH with Q56N, D75A, L81I, A111I
VL: B1 VL with S28P, I38L, Q39H, L42Q, S48A, Q50R, Y94A
notes: one-arm

Kd: 45.3 nM
B3: TR01H082-E22Hh/none-Hi-Kn010G3/L0260-k0 (antibody, V domains shown)
VH: B1 VH
VL: B1 VL with S25P, I38L, Q39H, L42Q, S48A, Q50R, Y94T
notes: one-arm

Kd: 9.51 nM
B4: TR01H071-E22Hh/none-Hi-Kn010G3/L0215-k0 (antibody, V domains shown)
VH: B1 VH with Q56N, D75A, L81I, G106S, A111I
VL: B1 VL with S28P, Q39H, L42Q, S48A, Q50R, Y94G
notes: one-arm

Kd: 47 nM
B5: TR01H082-E22Hh/none-Hi-Kn010G3/L0258-k0 (antibody, V domains shown)
VH: B1 VH
VL: B1 VL with S28P, I38L, Q39H, L42Q, S48A, Q50R, Y94T
notes: one-arm

Kd: 32.8 nM
B6: TR01H040-E22Hh/none-Hi-Kn010G3/TR01L010-k0 (antibody, V domains shown)
VH: B1 VH with D75A, L81I, A104S, G106S
VL: B1 VL with P29L, I38L, Q39H, L42Q, S48A, Q50R, S61R, Y94G, L109V, K112E
notes: one-arm

Kd: 34.4 nM
B7: TR01H082-E22Hh/none-Hi-Kn010G3/L0264-k0 (antibody, V domains shown)
VH: B1 VH
VL: B1 VL with S25P, I38L, Q39H, L42Q, S48A, Q50R, Y94A
notes: one-arm

Kd: 5.76 nM
B8: TR01H081-E22Hh/none-Hi-Kn010G3/L0262-k0 (antibody, V domains shown)
VH: B1 VH with D75A, L81I, A111I
VL: B1 VL with S28P, I38L, Q39H, L42Q, S48A, Q50R, Y94A
notes: one-arm

Kd: 47.2 nM
B9: TR01H082-E22Hh/none-Hi-Kn010G3/TR01L018-k0 (antibody, V domains shown)
VH: B1 VH
VL: B1 VL with R24Q, S25A, Q27E, I38L, Q39H, Y94G
notes: one-arm

Kd: 132 nM
B10: TR01H067-E22Hh/none-Hi-Kn010G3/L0226-k0 (antibody, V domains shown)
VH: B1 VH with G106S
VL: B1 VL with Q39H, L42Q, S48A, Q50R, Y94I
notes: one-arm

Kd: 139 nM
B11: TR01H067-E22Hh/none-Hi-Kn010G3/L0248-k0 (antibody, V domains shown)
VH: B1 VH with G106S
VL: B1 VL with S25P, L42Q, S48A, Q50R
notes: one-arm

Kd: 49.2 nM
B12: TR01H067-E22Hh/none-Hi-Kn010G3/L0262-k0 (antibody, V domains shown)
VH: B1 VH with G106S
VL: B1 VL with S28P, I38L, Q39H, L42Q, S48A, Q50R, Y94A
notes: one-arm

Kd: 47.1 nM
B13: TR01H061-E22Hh/none-Hi-Kn010G3/L0226-k0 (antibody, V domains shown)
VH: B1 VH with D75A, L81I, G106S, A111I
VL: B1 VL with Q39H, L42Q, S48A, Q50R, Y94I
notes: one-arm

Kd: 22.9 nM
B14: TR01H082-E22Hh/none-Hi-Kn010G3/L0266-k0 (antibody, V domains shown)
VH: B1 VH
VL: B1 VL with S28P, I38L, Q39H, L42Q, S48A, Q50R, Y94V
notes: one-arm

Kd: 67.6 nM
B15: CE115HA121-E22Hh/-Hi-Kn010G3/L0000-k0 (antibody, V domains shown)
VH: B1 VH with L11V, Q50L, D53A, Q56N, A104G, G106Y
VL: DIVMTQSPLSLPVTPGEPASISCRSSQSLVHSNRNTYLHWYQQKPGQAPRLLIYKVSNRFSGVPDRFSGSGSGTDFTLKISRVEAEDVGVYYCGQGTQVPYTFGQGTKLEIKR
notes: one-arm

Kd: 143 nM
B16: CE115HA124-E22Hh//-Hi-Kn010G3/L0000-k0 (antibody, V domains shown)
VH: B1 VH with L11V, D53A, K54L, Q56N, A104G, G106Y
VL: B15 VL
notes: one-arm

Kd: 8.51 nM
B17: TR01H084-E22Hh/none-Hi-Kn010G3/L0262-k0 (antibody, V domains shown)
VH: B1 VH with L11V, R16G, D75A, L81I, A111I
VL: B1 VL with S28P, I38L, Q39H, L42Q, S48A, Q50R, Y94A
notes: one-arm

Kd: 27.6 nM
B18: TR01H084-E22Hh/none-Hi-Kn010G3/L0270-k0 (antibody, V domains shown)
VH: B1 VH with L11V, R16G, D75A, L81I, A111I
VL: B1 VL with P29L, N35Q, I38L, Q39H, L42Q, S48A, Q50R, Y94G
notes: one-arm

Kd: 27.6 nM
B19: TR01H084-E22Hh/none-Hi-Kn010G3/L0271-k0 (antibody, V domains shown)
VH: B1 VH with L11V, R16G, D75A, L81I, A111I
VL: B1 VL with S28P, N35Q, I38L, Q39H, L42Q, S48A, Q50R, Y94G
notes: one-arm

Kd: 12.7 nM
B20: TR01H061-E22Hh/none-Hi-Kn010G3/L0200-k0 (antibody, V domains shown)
VH: B1 VH with D75A, L81I, G106S, A111I
VL: B1 VL with S25P, I38L, Q39H, L42Q, S48A, Q50R, Y94G
notes: one-arm

Kd: 39.8 nM
B21: TR01H082-E22Hh/none-Hi-Kn010G3/L0262-k0 (antibody, V domains shown)
VH: B1 VH
VL: B1 VL with S28P, I38L, Q39H, L42Q, S48A, Q50R, Y94A
notes: one-arm

Kd: 60.3 nM
B22: TR01H067-E22Hh/none-Hi-Kn010G3/L0200-k0 (antibody, V domains shown)
VH: B1 VH with G106S
VL: B1 VL with S25P, I38L, Q39H, L42Q, S48A, Q50R, Y94G
notes: one-arm

Kd: 10.9 nM
B23: CE115HA178-G1dh//-Hi-Kn010G3/L0000-k0 (antibody, V domains shown)
VH: B1 VH with D53A, Q56N, L81I, A104G, G106Y, D110Q
VL: B15 VL
notes: one-arm

Kd: 35.6 nM
B24: TR01H040-E22Hh/none-Hi-Kn010G3/TR01L009-k0 (antibody, V domains shown)
VH: B1 VH with D75A, L81I, A104S, G106S
VL: B1 VL with P29L, I38L, Q39H, S61R, Y94G
notes: one-arm
